This test addresses ADAM23-Fc (UniProt Q9R1V7). Kind of test: pull-down; as a2 but with co-expressed LGI3 (LGI3V5/His plasmid); secreted proteins precipitated from conditioned medium with Protein A or Ni-NTA beads; Western blot, band densities quantified in triplicate for ADAM23Fc with ADAM23γHis. A general note: A western blot detects proteins with antibodies after separation by electrophoresis.

For the substance ADAM23γV5/His (domain or fragment), the fold change of the interaction with LGI3 against without LGI3 turned out to be 2.5 fold.

The record behind these values is publication PMC9997507.
